Measured values from US20220041658A1 (PROTAGONIST THERAPEUTICS, published 2022).
Positions of bridges follow the written chain, without caps; N, C: chain ends. Non-standard residues stand in square brackets, D forms with d. Trp(7-OMe) = COc1cccc2c(C[C@H](N)C(=O)O)c[nH]c12; Trp(7-Me) = Cc1cccc2c(C[C@H](N)C(=O)O)c[nH]c12; Trp(1-Me) = Cn1cc(C[C@H](N)C(=O)O)c2ccccc21; 2Nal = N[C@@H](Cc1ccc2ccccc2c1)C(=O)O; AEF = NCCOc1ccc(C[C@H](N)C(=O)O)cc1; Cit = NC(=O)NCCC[C@H](N)C(=O)O; Pen = CC(C)(S)[C@H](N)C(=O)O; hLeu = CC(C)CC[C@H](N)C(=O)O; αMeK = C[C@](N)(CCCCN)C(=O)O; Abu = CC[C@H](N)C(=O)O; βAla = NCCC(=O)O

T1: interleukin-23 receptor (IL-23R) (human, UniProt Q5VWK5 24-629)
T1 sequence (looked up): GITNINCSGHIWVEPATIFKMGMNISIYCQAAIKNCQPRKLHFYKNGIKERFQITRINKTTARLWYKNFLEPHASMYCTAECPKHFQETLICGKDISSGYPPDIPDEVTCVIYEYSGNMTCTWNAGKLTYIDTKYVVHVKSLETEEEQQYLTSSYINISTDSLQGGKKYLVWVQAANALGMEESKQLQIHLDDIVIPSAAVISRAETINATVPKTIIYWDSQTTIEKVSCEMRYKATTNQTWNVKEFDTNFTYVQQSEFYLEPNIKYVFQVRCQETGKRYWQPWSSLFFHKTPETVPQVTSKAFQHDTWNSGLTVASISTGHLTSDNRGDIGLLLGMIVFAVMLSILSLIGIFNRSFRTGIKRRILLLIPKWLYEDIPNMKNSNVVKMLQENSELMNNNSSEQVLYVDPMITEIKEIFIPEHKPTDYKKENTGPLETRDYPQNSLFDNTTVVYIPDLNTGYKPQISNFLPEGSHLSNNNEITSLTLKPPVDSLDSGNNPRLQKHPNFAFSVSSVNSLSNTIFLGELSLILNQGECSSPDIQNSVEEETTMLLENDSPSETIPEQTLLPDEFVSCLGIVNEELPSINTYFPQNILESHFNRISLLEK

B1: Peptide of SEQ ID NO: 214 (peptide)
peptide: XNTXQXXXXKHX
modifications: Ac-[Pen]-NT-[W(7-Me)]-Q-[Pen]-Phe[4-(2-aminoethoxy)]-[2-Nal]-[a-MeLeu]-[Lys(Ac)]-H-[bA]-NH2; Pen-Pen disulfide
B2: Peptide of SEQ ID NO: 361 (peptide)
peptide: XNTXKXXXXXNL
modifications: Ac-[Pen]-N-T-[W(7-Me)]-[Lys(Ac)]-[Pen]-Phe[4-(2-aminoethoxy)]-[2-Nal]-[a-MeLys]-[Lys(valeric)]-N-[(D)Leu]-NH2; Pen-Pen disulfide
B3: Peptide of SEQ ID NO: 316 (peptide)
peptide: XNTXXXXXXKNL
modifications: not fully specified; Ac-[Pen]-N-T-[W(7-Me)]-[Lys(cyclohexyl)]-[Pen]-Phe[4-(2-aminoethoxy)]-[2-Nal]-[a-MeLys]-[Lys(Ac)]-N-[(D)Leu]-NH2; Pen-Pen disulfide
B4: Peptide of SEQ ID NO: 352 (peptide)
peptide: XNTXKXXXXKSK
modifications: Ac-[Pen]-N-T-[W(7-Me)]-[Lys(Ac)]-[Pen]-Phe[4-(2-aminoethoxy)]-[2-Nal]-[a-MeLys]-[Lys(Ac)]-S-[(D)Lys]-NH2; Pen-Pen disulfide
B5: Peptide of SEQ ID NO: 299 (peptide)
peptide: XNTXKXXXXKNK
modifications: Ac-[Pen]-N-T-[W(7-OMe)]-[Lys(Ac)]-[Pen]-Phe[4-(2-aminoethoxy)]-[2-Nal]-[a-MeLys]-[Lys(Ac)]-N-[(D)Lys]-NH2; Pen-Pen disulfide
B6: Peptide of SEQ ID NO: 357 (peptide)
peptide: XNTXKXXXXXNL
modifications: not fully specified; Ac-[Pen]-N-T-[W(7-Me)]-[Lys(Ac)]-[Pen]-Phe[4-(2-aminoethoxy)]-[2-Nal]-[a-MeLys]-[Lys(cyclohexyl)]-N-[(D)Leu]-NH2; Pen-Pen disulfide
B7: Peptide of SEQ ID NO: 362 (peptide)
peptide: XNTXKXXXXXNL
modifications: Ac-[Pen]-N-T-[W(7-Me)]-[Lys(Ac)]-[Pen]-Phe[4-(2-aminoethoxy)]-[2-Nal]-[a-MeLys]-[Lys(PEG3-OMe)]-N-[(D)Leu]-NH2; Pen-Pen disulfide
B8: Peptide of SEQ ID NO: 281 (peptide)
peptide: Ac-[Pen]NT[Trp(7-Me)][Cit][Pen][AEF][2Nal][αMeK][Cit][βAla][βAla]-NH2
modifications: disulfide 1-6
SMILES: CC(=O)N[C@@H]1C(=O)N[C@@H](CC(N)=O)C(=O)N[C@@H]([C@@H](C)O)C(=O)N[C@@H](Cc2c[nH]c3c(C)cccc23)C(=O)N[C@@H](CCCNC(N)=O)C(=O)N[C@H](C(=O)N[C@@H](Cc2ccc(OCCN)cc2)C(=O)N[C@@H](Cc2ccc3ccccc3c2)C(=O)N[C@@](C)(CCCCN)C(=O)N[C@@H](CCCNC(N)=O)C(=O)NCCC(=O)NCCC(N)=O)C(C)(C)SSC1(C)C
B9: Peptide of SEQ ID NO: 202 (peptide)
peptide: XNTXQXXXXKNX
modifications: Ac-[Pen]-NT-[W(7-Me)]-Q-[Pen]-Phe[4-(2-aminoethoxy)]-[2-Nal]-[a-MeLys]-[Lys(Ac)]-N-[bA]-NH2; Pen-Pen disulfide
B10: Peptide of SEQ ID NO: 337 (peptide)
peptide: Ac-[Pen][hLeu]T[Trp(7-Me)]K(Ac)[Pen][AEF][2Nal][αMeK]K(Ac)N[dL]-NH2
modifications: disulfide 1-6 (inferred)
B11: Peptide of SEQ ID NO: 334 (peptide)
peptide: Ac-[Pen]ST[Trp(7-Me)]K(Ac)[Pen][AEF][2Nal][αMeK]K(Ac)N[dL]-NH2
modifications: disulfide 1-6 (inferred)
B12: Peptide of SEQ ID NO: 300 (peptide)
peptide: Ac-[Pen]NT[Trp(7-OMe)][Cit][Pen][AEF][2Nal][αMeK]K(Ac)N[dK]-NH2
modifications: disulfide 1-6 (inferred)
B13: Peptide of SEQ ID NO: 203 (peptide)
peptide: RXQTXQCXXXENX
modifications: Ac-[(D)Arg]-Abu-Q-T-[W(7-Me)]-Q-C-Phe[4-(2-aminoethoxy)]-[2-Nal]-[THP]-E-N-[bA]-NH2; Abu-Cys thioether
B14: Peptide of SEQ ID NO: 292 (peptide)
peptide: Ac-[Pen]NT[Trp(7-Me)]K(Ac)[Pen][His_Bzl][2Nal][αMeK]K(Ac)N[dL]-NH2
modifications: disulfide 1-6 (inferred)
B15: Peptide of SEQ ID NO: 296 (peptide)
peptide: XNTXQXXXXKNK
modifications: Ac-[Pen]-N-T-[W(5-CN)]-Q-[Pen]-Phe[4-(2-aminoethoxy)]-[2-Nal]-[a-MeLys]-[Lys(Ac)]-N-[(D)Lys]-NH2; Pen-Pen disulfide
B16: Peptide of SEQ ID NO: 291 (peptide)
peptide: Ac-[Pen]NT[Trp(7-Me)]K(Ac)[Pen][His_3Bom][2Nal][αMeK]K(Ac)N[dL]-NH2
modifications: disulfide 1-6 (inferred)
B17: Peptide of SEQ ID NO: 286 (peptide)
peptide: Ac-[Pen]NT[Trp(7-i-Pr)]K(Ac)[Pen][AEF][2Nal][αMeK]K(Ac)N[dL]-NH2
modifications: disulfide 1-6 (inferred)
B18: Peptide of SEQ ID NO: 315 (peptide)
peptide: XNTXXXXXXKNL
modifications: Ac-[Pen]-N-T-[W(7-Me)]-[Lys(IVA)]-[Pen]-Phe[4-(2-aminoethoxy)]-[2-Nal]-[a-MeLys]-[Lys(Ac)]-N-[(D)Leu]-NH2; Pen-Pen disulfide
B19: Peptide of SEQ ID NO: 324 (peptide)
peptide: Ac-[dR][Abu]QT[Trp(7-Me)]K(Ac)C[AEF][2Nal][αMeK]K(Ac)N[dK]-NH2
modifications: thioether 2-7 (inferred)
B20: Peptide of SEQ ID NO: 297 (peptide)
peptide: XNTXQXXXXKNK
modifications: Ac-[Pen]-N-T-[W(7-OMe)]-Q-[Pen]-Phe[4-(2-aminoethoxy)]-[2-Nal]-[a-MeLys]-[Lys(Ac)]-N-[(D)Lys]-NH2; Pen-Pen disulfide
B21: Peptide of SEQ ID NO: 283 (peptide)
peptide: Ac-[Pen]NT[Trp(7-Me)]Q[Pen][AEF][Trp(1-Me)][αMeK]K(Ac)N[βAla]-NH2
modifications: disulfide 1-6

What was measured:
[1] = target: T1, interleukin-23 receptor (IL-23R); assay: cell-based or functional assay
[2] = target: T1, interleukin-23 receptor (IL-23R); assay: cell-based or functional assay; remark: listed apart in the source

Binder | pStat3 HTRF IC50 [1] [nM] | NK Cell Assay IC50 [2] [nM]
B1 | 1.53 | 6.3
B2 | 0.596 | 1.47
B3 | 5.6 | –
B4 | 0.927 | 3.5
B5 | 2.86 | –
B6 | 0.331 | 3.8
B7 | 0.107 | 3.81
B8 | 17.7 | –
B9 | 1.1 | 3.49
B10 | 0.779 | 11.1
B11 | 0.55 | 4.52
B12 | > 1000 | –
B13 | 1.84 | 2.3
B14 | 128 | –
B15 | 6.29 | –
B16 | > 1000 | –
B17 | 1.61 | –
B18 | 1.41 | –
B19 | 27 | 9.35
B20 | 1.04 | –
B21 | 4.52 | –
